In paper PMC8298264, “Function of cofactor Akirin2 in the regulation of gene expression in model human neutrophil-like HL60 cells” (Bioscience Reports, 2021):

Experiments:
human HL60 cells = experiment: SWATH-MS proteomics, differential protein representation, akirin2 KO vs WT HL60 cells; type: cell-based; conditions: sheet "Under-represented in KO"
In short: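 Read-out is label-free SWATH-MS protein area, globally normalized to total detected-protein area, with identifications held at 1% FDR against a library from information-dependent acquisition.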

AKR2 = system: AKR2; design: key: A: Very high confidence in the interaction; B: High confidence in the interaction; D: Moderate confidence in the interaction; conditions: AKR2-interacting proteins (IPs), physical interactome; ref https://doi.org/10.3390/vaccines8010077; cited from earlier work
Excerpt: Supplement BSR-2021-1120_supp1.zip/BSR-2021-1120_suppST4.xlsx, sheet "BPs related to AKR2-IPs" | column: Predicted Biological Score (PBS)

B1: sp¦Q7Z3D6¦GLUCM_HUMAN (protein, UniProt Q7Z3D6 29-616, looked up)
D-glutamate cyclase, …: TSSMAGELRPASLVVLPRSLAPAFERFCQVNTGPLPLLGQSEPEKWMLPPQGAISETRMGHPQFWKYEFGACTGSLASLEQYSEQLKDMVAFFLGCSFSLEEALEKAGLPRRDPAGHSQTTVPCVTHAGFCCPLVVTMRPIPKDKLEGLVRACCSLGGEQGQPVHMGDPELLGIKELSKPAYGDAMVCPPGEVPVFWPSPLTSLGAVSSCETPLAFASIPGCTVMTDLKDAKAPPGCLTPERIPEVHHISQDPLHYSIASVSASQKIRELESMIGIDPGNRGIGHLLCKDELLKASLSLSHARSVLITTGFPTHFNHEPPEETDGPPGAVALVAFLQALEKEVAIIVDQRAWNLHQKIVEDAVEQGVLKTQIPILTYQGGSVEAAQAFLCKNGDPQTPRFDHLVAIERAGRAADGNYYNARKMNIKHLVDPIDDLFLAAKKIPGISSTGVGDGGNELGMGKVKEAVRRHIRHGDVIACDVEADFAVIAGVSNWGGYALACALYILYSCAVHSQYLRKAVGPSRAPGDQAWTQALPSVIKEEKMLGILVQHKVRSGVSGIVGMEVDGLPFHNTHAEMIQKLVDVTTAQV
- Fold Change (human HL60 cells; KO vs WT HL60 cells): 0.5156
- Log (Fold Change) (human HL60 cells; KO vs WT HL60 cells): -0.2877

B2: sp¦Q86UP2¦KTN1_HUMAN (protein, UniProt Q86UP2 1-1357, looked up)
Kinectin: MEFYESAYFIVLIPSIVITVIFLFFWLFMKETLYDEVLAKQKREQKLIPTKTDKKKAEKKKNKKKEIQNGNLHESDSESVPRDFKLSDALAVEDDQVAPVPLNVVETSSSVRERKKKEKKQKPVLEEQVIKESDASKIPGKKVEPVPVTKQPTPPSEAAASKKKPGQKKSKNGSDDQDKKVETLMVPSKRQEALPLHQETKQESGSGKKKASSKKQKTENVFVDEPLIHATTYIPLMDNADSSPVVDKREVIDLLKPDQVEGIQKSGTKKLKTETDKENAEVKFKDFLLSLKTMMFSEDEALCVVDLLKEKSGVIQDALKKSSKGELTTLIHQLQEKDKLLAAVKEDAAATKDRCKQLTQEMMTEKERSNVVITRMKDRIGTLEKEHNVFQNKIHVSYQETQQMQMKFQQVREQMEAEIAHLKQENGILRDAVSNTTNQLESKQSAELNKLRQDYARLVNELTEKTGKLQQEEVQKKNAEQAATQLKVQLQEAERRWEEVQSYIRKRTAEHEAAQQDLQSKFVAKENEVQSLHSKLTDTLVSKQQLEQRLMQLMESEQKRVNKEESLQMQVQDILEQNEALKAQIQQFHSQIAAQTSASVLAEELHKVIAEKDKQIKQTEDSLASERDRLTSKEEELKDIQNMNFLLKAEVQKLQALANEQAAAAHELEKMQQSVYVKDDKIRLLEEQLQHEISNKMEEFKILNDQNKALKSEVQKLQTLVSEQPNKDVVEQMEKCIQEKDEKLKTVEELLETGLIQVATKEEELNAIRTENSSLTKEVQDLKAKQNDQVSFASLVEELKKVIHEKDGKIKSVEELLEAELLKVANKEKTVQDLKQEIKALKEEIGNVQLEKAQQLSITSKVQELQNLLKGKEEQMNTMKAVLEEKEKDLANTGKWLQDLQEENESLKAHVQEVAQHNLKEASSASQFEELEIVLKEKENELKRLEAMLKERESDLSSKTQLLQDVQDENKLFKSQIEQLKQQNYQQASSFPPHEELLKVISEREKEISGLWNELDSLKDAVEHQRKKNNDLREKNWEAMEALASTEKMLQDKVNKTSKERQQQVEAVELEAKEVLKKLFPKVSVPSNLSYGEWLHGFEKKAKECMAGTSGSEEVKVLEHKLKEADEMHTLLQLECEKYKSVLAETEGILQKLQRSVEQEENKWKVKVDESHKTIKQMQSSFTSSEQELERLRSENKDIENLRREREHLEMELEKAEMERSTYVTEVRELKDLLTELQKKLDDSYSEAVRQNEELNLLKAQLNETLTKLRTEQNERQKVAGDLHKAQQSLELIQSKIVKAAGDTTVIENSDVSPETESSEKETMSVSLNQTVTQLQQLLQAVNQQLTKEKEHYQVLE
- Fold Change (human HL60 cells; akirin2 KO vs WT HL60 cells): 0.24
- Log (Fold Change) (human HL60 cells; akirin2 KO vs WT HL60 cells): -0.6198

B3: RNF123 (protein, UniProt Q5XPI4 2-1314, looked up)
E3 ubiquitin-protein ligase …: ASKGAGMSFSRKSYRLTSDAEKSRVTGIVQEKLLNDYLNRIFSSSEHAPPAATSRKPLNFQNLPEHLDQLLQVDNEEEESQGQVEGRLGPSTVVLDHTGGFEGLLLVDDDLLGVIGHSNFGTIRSTTCVYKGKWLYEVLISSQGLMQIGWCTISCRFNQEEGVGDTHNSYAYDGNRVRKWNVTTTNYGKAWAAGDIVSCLIDLDDGTLSFCLNGVSLGTAFENLSRGLGMAYFPAISLSFKESVAFNFGSRPLRYPVAGYRPLQDPPSADLVRAQRLLGCFRAVLSVELDPVEGRLLDKESSKWRLRGQPTVLLTLAHIFHHFAPLLRKVYLVEAVLMSFLLGIVEKGTPTQAQSVVHQVLDLLWLFMEDYEVQDCLKQLMMSLLRLYRFSPIVPDLGLQIHYLRLTIAILRHEKSRKFLLSNVLFDVLRSVVFFYIKSPLRVEEAGLQELIPTTWWPHCSSREGKESTEMKEETAEERLRRRAYERGCQRLRKRIEVVEELQVQILKLLLDNKDDNGGEASRYIFLTKFRKFLQENASGRGNMPMLCPPEYMVCFLHRLISALRYYWDEYKASNPHASFSEEAYIPPQVFYNGKVDYFDLQRLGGLLSHLRKTLKDDLASKANIVIDPLELQSTAMDDLDEDEEPAPAMAQRPMQALAVGGPLPLPRPGWLSSPTLGRANRFLSTAAVSLMTPRRPLSTSEKVKVRTLSVEQRTREDIEGSHWNEGLLLGRPPEEPEQPLTENSLLEVLDGAVMMYNLSVHQQLGKMVGVSDDVNEYAMALRDTEDKLRRCPKRRKDILAELTKSQKVFSEKLDHLSRRLAWVHATVYSQEKMLDIYWLLRVCLRTIEHGDRTGSLFAFMPEFYLSVAINSYSALKNYFGPVHSMEELPGYEETLTRLAAILAKHFADARIVGTDIRDSLMQALASYVCYPHSLRAVERIPEEQRIAMVRNLLAPYEQRPWAQTNWILVRLWRGCGFGYRYTRLPHLLKTKLEDANLPSLQKPCPSTLLQQHMADLLQQGPDVAPSFLNSVLNQLNWAFSEFIGMIQEIQQAAERLERNFVDSRQLKVCATCFDLSVSLLRVLEMTITLVPEIFLDWTRPTSEMLLRRLAQLLNQVLNRVTAERNLFDRVVTLRLPGLESVDHYPILVAVTGILVQLLVRGPASEREQATSVLLADPCFQLRSICYLLGQPEPPAPGTALPAPDRKRFSLQSYADYISADELAQVEQMLAHLTSASAQAAAASLPTSEEDLCPICYAHPISAVFQPCGHKSCKACINQHLMNNKDCFFCKTTIVSVEDWEKGANTSTTSSAA
- Predicted Biological Score (PBS) (AKR2): A

B4: RNF181 (protein, UniProt Q9P0P0 1-153, looked up)
E3 ubiquitin-protein ligase …: MASYFDEHDCEPSDPEQETRTNMLLELARSLFNRMDFEDLGLVVDWDHHLPPPAAKTVVENLPRTVIRGSQAELKCPVCLLEFEEEETAIEMPCHHLFHSSCILPWLSKTNSCPLCRYELPTDDDTYEEHRRDKARKQQQQHRLENLHGAMYT
- Predicted Biological Score (PBS) (AKR2): A

B5: SIRT1 (protein, UniProt Q96EB6 2-747, looked up)
NAD-dependent protein …: ADEAALALQPGGSPSAAGADREAASSPAGEPLRKRPRRDGPGLERSPGEPGGAAPEREVPAAARGCPGAAAAALWREAEAEAAAAGGEQEAQATAAAGEGDNGPGLQGPSREPPLADNLYDEDDDDEGEEEEEAAAAAIGYRDNLLFGDEIITNGFHSCESDEEDRASHASSSDWTPRPRIGPYTFVQQHLMIGTDPRTILKDLLPETIPPPELDDMTLWQIVINILSEPPKRKKRKDINTIEDAVKLLQECKKIIVLTGAGVSVSCGIPDFRSRDGIYARLAVDFPDLPDPQAMFDIEYFRKDPRPFFKFAKEIYPGQFQPSLCHKFIALSDKEGKLLRNYTQNIDTLEQVAGIQRIIQCHGSFATASCLICKYKVDCEAVRGDIFNQVVPRCPRCPADEPLAIMKPEIVFFGENLPEQFHRAMKYDKDEVDLLIVIGSSLKVRPVALIPSSIPHEVPQILINREPLPHLHFDVELLGDCDVIINELCHRLGGEYAKLCCNPVKLSEITEKPPRTQKELAYLSELPPTPLHVSEDSSSPERTSPPDSSVIVTLLDQAAKSNDDLDVSESKGCMEEKPQEVQTSRNVESIAEQMENPDLKNVGSSTGEKNERTSVAGTVRKCWPNRVAKEQISRRLDGNQYLFLPPNRYIFHGAEVYSDSEDDVLSSSSCGSNSDSGTCQSPSLEEPMEDESEIEEFYNGLEDEPDVPERAGGAGFGTDGDDQEAINEAISVKQEVTDMNYPSNKS
- Predicted Biological Score (PBS) (AKR2): D

B6: SORBS3 (protein, UniProt O60504 1-671, looked up)
Vinexin: MQGPPRSLRAGLSLDDFIPGHLQSHIGSSSRGTRVPVIRNGGSNTLNFQFHDPAPRTVCNGGYTPRRDASQHPDPAWYQTWPGPGSKPSASTKIPASQHTQNWSATWTKDSKRRDKRWVKYEGIGPVDESGMPIAPRSSVDRPRDWYRRMFQQIHRKMPDLQLDWTFEEPPRDPRHLGAQQRPAHRPGPATSSSGRSWDHSEELPRSTFNYRPGAFSTVLQPSNQVLRRREKVDNVWTEESWNQFLQELETGQRPKKPLVDDPGEKPSQPIEVLLERELAELSAELDKDLRAIETRLPSPKSSPAPRRAPEQRPPAGPASAWSSSYPHAPYLGSARSLSPHKMADGGSPFLGRRDFVYPSSTRDPSASNGGGSPARREEKKRKAARLKFDFQAQSPKELTLQKGDIVYIHKEVDKNWLEGEHHGRLGIFPANYVEVLPADEIPKPIKPPTYQVLEYGEAVAQYTFKGDLEVELSFRKGEHICLIRKVNENWYEGRITGTGRQGIFPASYVQVSREPRLRLCDDGPQLPTSPRLTAAARSARHPSSPSALRSPADPIDLGGQTSPRRTGFSFPTQEPRPQTQNLGTPGPALSHSRGPSHPLDLGTSSPNTSQIHWTPYRAMYQYRPQNEDELELREGDRVDVMQQCDDGWFVGVSRRTQKFGTFPGNYVAPV
- Predicted Biological Score (PBS) (AKR2): A

B7: SPG21 (protein, UniProt Q9NZD8 1-308, looked up)
Maspardin: MGEIKVSPDYNWFRGTVPLKKIIVDDDDSKIWSLYDAGPRSIRCPLIFLPPVSGTADVFFRQILALTGWGYRVIALQYPVYWDHLEFCDGFRKLLDHLQLDKVHLFGASLGGFLAQKFAEYTHKSPRVHSLILCNSFSDTSIFNQTWTANSFWLMPAFMLKKIVLGNFSSGPVDPMMADAIDFMVDRLESLGQSELASRLTLNCQNSYVEPHKIRDIPVTIMDVFDQSALSTEAKEEMYKLYPNARRAHLKTGGNFPYLCRSAEVNLYVQIHLLQFHGTKYAAIDPSMVSAEELEVQKGSLGISQEEQ
- Predicted Biological Score (PBS) (AKR2): A

B8: TNIP2 (protein, UniProt Q8NFZ5 1-429, looked up)
TNFAIP3-interacting protein 2: MSRDPGSGGWEEAPRAAAALCTLYHEAGQRLRRLQDQLAARDALIARLRARLAALEGDAAPSLVDALLEQVARFREQLRRQEGGAAEAQMRQEIERLTERLEEKEREMQQLLSQPQHEREKEVVLLRRSMAEGERARAASDVLCRSLANETHQLRRTLTATAHMCQHLAKCLDERQHAQRNVGERSPDQSEHTDGHTSVQSVIEKLQEENRLLKQKVTHVEDLNAKWQRYNASRDEYVRGLHAQLRGLQIPHEPELMRKEISRLNRQLEEKINDCAEVKQELAASRTARDAALERVQMLEQQILAYKDDFMSERADRERAQSRIQELEEKVASLLHQVSWRQDSREPDAGRIHAGSKTAKYLAADALELMVPGGWRPGTGSQQPEPPAEGGHPGAAQRGQGDLQCPHCLQCFSDEQGEELLRHVAECCQ
- Predicted Biological Score (PBS) (AKR2): A
